Measured values from PMC3594189, “Cellular Catabolism of the Iron-Regulatory Peptide Hormone Hepcidin” (PLoS ONE, 2013).
Each block holds one compound with its values, some of them ahead of it. No end group written: not given here.

Tests used:
[1] = target: T1, ECR293 cells expressing Fpn-GFP (Mus musculus, UniProt Q9JHI9); type: cell-based
T1 construct: expressed in transfected cells; host or cells: ECR293 (ECR-Fpn) cells, ponasterone-inducible
T1 sequence (Q9JHI9 1-570): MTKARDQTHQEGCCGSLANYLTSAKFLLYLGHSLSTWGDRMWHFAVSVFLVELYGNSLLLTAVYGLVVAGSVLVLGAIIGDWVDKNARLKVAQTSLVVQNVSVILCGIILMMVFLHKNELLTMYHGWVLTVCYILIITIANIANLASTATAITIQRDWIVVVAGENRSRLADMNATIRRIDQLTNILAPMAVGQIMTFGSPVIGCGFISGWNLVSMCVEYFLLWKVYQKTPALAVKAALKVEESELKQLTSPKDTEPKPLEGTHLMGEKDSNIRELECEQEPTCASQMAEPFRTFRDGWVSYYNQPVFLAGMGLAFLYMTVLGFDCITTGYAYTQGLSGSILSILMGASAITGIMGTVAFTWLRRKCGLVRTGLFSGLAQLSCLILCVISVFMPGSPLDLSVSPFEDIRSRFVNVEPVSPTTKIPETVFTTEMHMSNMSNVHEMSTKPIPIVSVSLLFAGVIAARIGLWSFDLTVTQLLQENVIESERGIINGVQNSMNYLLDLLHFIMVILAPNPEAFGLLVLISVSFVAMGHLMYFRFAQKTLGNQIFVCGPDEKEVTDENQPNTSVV
Description: ECR-Fpn cells were plated on poly-D-lysine coated plates in the presence of 20 µM FAC, with or without 10 µM ponasterone, and incubated at 37°C. After 24 h, cells were washed with PBS and 1 ml of serum free media was added. The cells were treated with 5×10^5 cpm of ^125I–hepcidin for 2 h (loading period) at 37°C. After 2 h the cells were washed 3 times with DMEM/10% fetal bovine serum to remove unbound ^125I-hepcidin and 1 ml serum-free media with 20 µM FAC was added to all wells. Cells were incubated at 37°C for 5 min, 4, 8 and 24 h after loading. To prevent lysosomal acidification and proteolysis, 100 nM bafilomycin was added to assigned wells for 24 h. The supernatant was collected, its radioactivity quantified by a gamma counter, and an aliquot subjected to HPLC analysis. The cells were washed once and centrifuged for 2 min at 12,000xg through a silicone oil layer (Nyosil M25, Nye, Fairhaven, MA). The radioactivity in cell pellets was determined by gamma counting (Beckman, Fullerton, CA).
Aliquots of the supernatants were analyzed by reversed-phase high-performance liquid chromatography (RP-HPLC) on Vydac C18 column (218TP54; Waters). Fractions were eluted over 30 minutes with an acetonitrile gradient (1 fraction per minute) and their radioactivity determined by gamma counting.

[2] = target: T1, ECR293 cells expressing Fpn-GFP; type: cell-based; conditions: for effect of lysosomal inhibitor on degradation of both hepcidin and ferroportin: chloroquine 100 µM or bafilomycin 100 nM for 20 h after 4 h TR-Hep loading, flow cytometry
Description: ECR-Fpn cells were plated on poly-D-lysine-coated plates in the presence of 20 µM FAC, with or without 10 µM ponasterone. After 24 h, ponasterone was washed off, and cells were loaded with 1 µg/ml TR-Hep for 4 h. After 4 h, cells were washed with PBS, fresh media was added and cells were treated with or without lysosomal inhibitors chloroquine (100 µM) and bafilomycin (100 nM). Twenty hours after the addition of inhibitors, cells were trypsinized and resuspended at 1×10^6 cells/ml, and the intensity of red and green fluorescence was analyzed by flow cytometry at UCLA Jonsson Comprehensive Cancer Center and Center for AIDS Research Flow Cytometry Core Facility (supported by NIH awards CA-16 042 and AI-28 697, the UCLA AIDS institute, and the UCLA School of Medicine). Flow cytometry was performed on FACSVantage SE sorting flow cytometer with digital electronics (Becton Dickinson, San Jose, CA) and analyzed with FACSDiva software (Becton Dickinson). Cells not induced with ponasterone were used to establish a gate to exclude background fluorescence. Loss of cellular Fpn-GFP was quantified as % of green fluorescence in induced cells not treated with hepcidin. Degradation of cellular TR-Hep was measured as % of red fluorescence in induced cells treated with TR-Hep for 4 h.

[3] = cited from earlier work
From the text: This study was the first to examine the fate of hepcidin from its initial binding to ferroportin to its cellular catabolism. We show here that hepcidin is internalized together with ferroportin and that both are degraded in lysosomes. Because of the small size of hepcidin (∼2.7 kD) and its weak binding to plasma proteins, glomerular filtration and proteolysis in proximal tubules is thought to be the major mechanism for hepcidin clearance from blood. Detectable concentrations of hepcidin in urine, indicative of peptide that escaped proteolysis in the proximal tubules, are consiste ...

[4] = target: T2, Fpn-GFP expressing ECR293 cells (ferroportin) (Mus musculus, UniProt Q9JHI9); assay: Temperature and pH dependent 125I-hepcidin binding/internalization assay; type: cell-based
T2 construct: expressed in transfected cells; host or cells: ECR293 (ECR-Fpn) cells, ponasterone-inducible
T2 sequence (Q9JHI9 1-570): T1 sequence (Q9JHI9 1-570)
Description: ^125I-hepcidin (10^6 cpm, specific activity ∼10^7 cpm/µg) was added to ECR-Fpn cells plated on poly-D-lysine coated plates in the presence of 20 µM FAC, with or without 10 µM ponasterone. Cells were incubated with radiolabeled hepcidin at different temperatures (0, 15, 23 and 37°C) for 1 hour. For pH experiments, growth medium was replaced with media adjusted to pH of 2, 4, 5, 6, 7, 8 and 9 (without additional FAC) and radiolabeled hepcidin was added for 1 h at 37°C. Cells were washed with phosphate-buffered saline (PBS) to remove unbound radioactive hepcidin and centrifuged for 2 minutes at 12,000xg through a silicone oil layer (Nyosil M25; Nye). The radioactivity in cell pellets was determined by gamma counting. The temperature-dependence data are expressed in counts-per-minute (cpm), whereas pH-dependence data were normalized because of the variability in absolute cpm values between experiments and expressed as % of radioactivity at pH 7. The radioactivity of uninduced cells subtracted as background for each point.

Fpn-GFP expressing cells = target: T3, Fpn-GFP expressing cells (Mus musculus, UniProt Q9JHI9); assay: Confocal microscopy co-localization of TR-Hep with Fpn-GFP; type: cell-based
T3 construct: expressed in transfected cells; host or cells: ECR293 (ECR-Fpn) cells, ponasterone-inducible
T3 sequence (Q9JHI9 1-570): T1 sequence (Q9JHI9 1-570)
Description: ECR-Fpn cells were plated in a 12-well plate on 12 mm poly-D-lysine coated round coverslips (Becton Dickinson, Franklin Lakes, NJ) in the presence of 20 µM ferric ammonium citrate (FAC) with or without 10 µM ponasterone. FAC is added to the medium to prevent cellular iron depletion caused by prolonged Fpn-GFP overexpression. After 24 h, ponasterone was washed off, and cells were treated with 1 µg/ml TR-Hep at 37°C protected from light. After 1 hour, cells were washed with PBS two times and the coverslip was placed on a slide, sealed with clear nail polish and immediately analyzed. Images were scanned at the UCLA CNSI Advanced Light Microscopy Facility and the BRI Cell Imaging Facility on a Leica TCS-SP MP Confocal and Multiphoton Inverted Microscope (Heidelberg, Germany) equipped with an argon laser (488 nm blue excitation: JDS Uniphase), a 561 nm (green) diode laser (DPSS: Melles Griot), and a two photon laser setup consisting of a Spectra-Physics Millenia×532 nm green diode pump laser and a Tsunami Ti-Sapphire picosecond pulsed infrared laser tuned at 768 nm for UV excitation. Images were acquired using LCS Lite software (Leica Confocal Software, Leica Microsystems, Manheim, Germany).

ferroportin = conditions: naturally occurring urinary forms; cited from earlier work

Compound: CO/C1=C\C(C)=C\[C@@H](C)[C@@H](O)[C@@H](C)C/C(C)=C/C=C/[C@H](OC)[C@@H]([C@@H](C)[C@@H](O)[C@H](C)[C@@]2(O)C[C@@H](O)[C@H](C)[C@@H](C(C)C)O2)OC1=O [bafilomycin, reference compound]
effect of bafilomycin on cellular radioactivity ([1]; 100 nM bafilomycin for 24 h after 125I-hepcidin loading, gamma counting of cell pellets): increased the retention of radioactivity in cells | effect of lysosomal inhibitor on degradation of both hepcidin and ferroportin [2]: completely prevented the degradation

Compound: TR-Hep: synthetic hepcidin labeled with Texas Red-X succinimidyl ester
co-localization of red hepcidin with green ferroportin in vesicles (Fpn-GFP expressing cells; 1 µg/ml TR-Hep, 1 h, 37°C, induced cells, confocal microscopy): nearly complete co-localization | red fluorescence in uninduced cells (Fpn-GFP expressing cells; uninduced cells treated with TR hepcidin, data not shown): no detectable red fluorescence | degradation of Fpn-GFP after TR-Hep ([2]; 24 h after addition of 1 µg/ml TR-Hep, green fluorescence by flow cytometry): nearly completely degraded

Compound: ^125I-hepcidin: synthetic hepcidin with M21Y substitution iodinated with 125I (DTHFPICIFCCGCCHRSKCGYCCKT; disulfide (positions not given here); not fully specified (bridges); ends not checked; also: iodinated with 125I, site not given here; UniProt P81172 60-84, looked up, variant M21Y)
radioactivity in cell pellets after loading [1]: almost complete loss of radioactivity | binding of 125I-hepcidin to Fpn-GFP expressing cells at temperatures below 37°C ([4]; 1 h at 0, 15, 23 and 37°C, cell-bound radioactivity by gamma counting (cpm), at least three experiments): decreased

Compound: hepcidin-20: degradation product of hepcidin-25 detected in urine, truncated at the N-terminus by 5 amino acids (ICIFCCGCCHRSKCGMCCKT; disulfide (positions not given here); ends not checked; also: disulfide bridges, pairing not given here; UniProt P81172 65-84, looked up)
activity relative to hepcidin-25 (ferroportin): much less active than hepcidin-25

Further lines, with some results ahead:

effect of lysosomal inhibitor on degradation of both hepcidin and ferroportin [2]: completely prevented the degradation
Compound: CCN(CC)CCCC(C)Nc1ccnc2cc(Cl)ccc12 (stereo not drawn) [chloroquine]

specific binding at pH lower than 6 ([4]; pH 2, 4, 5, 1 h at 37°C, uninduced-cell background subtracted): did not bind specifically | binding to ferroportin at pH 9 ([4]; pH 9 among pH 2, 4, 5, 6, 7, 8 and 9, 1 h at 37°C, normalized to pH 7): highest binding
Compound: Hepcidin: 25-amino acid peptide hormone, principal regulator of plasma iron concentrations; synthetic hepcidin from Peptides International
binding to plasma proteins [3]: weak binding
